Results on one molecule are retold here after paper PMC9201380 (2022).

In the experiment the target is SARS-CoV-2 S receptor-binding domain (residues 330-531), Avi-tagged and biotinylated (SARS-CoV-2, UniProt P0DTC2 330-531). In words: BLI.

B1: DL28 (monovalent nanobody) (VHH)
VHH: QVQLQESGGGLVQAGGSLRLSCAASGSDFSSSTMGWYRQAPGKQREFVAISSEGSTSYAGSVKGRFTISRDNAKNTVYLQMNSLEPEDTAVYYCNVVDRWYDYWGQGTQVTVSA
As to B1, the off-rate (koff) is 0.000743 s⁻¹.
